Test results reported in the RNAGym collection of RNA variant scans (doi:10.1073/pnas.2313332121).

B1: TPR t1 (parent)
chain: GACCAAUCUGCCCUCAGAGCUCGAGAACAUCUUCGGAUGCAGAGGAGGCAGGCUUCGGUGGCGCGAUAGCGCCAACGUCCUCAACCUCCAAUGCAUCCCACCACAUGAUGAUGCCUGAAGAGCCUUGGUUUUUUG

Variants of: B1
Assay: polymerase ribozyme fitness, log enrichment relative to wild type (log ratio); higher = more active; in vitro selection for triplet polymerase activity
How it was run: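 Fitness measures genotype enrichment against wild-type enrichment on a logarithmic scale, with inverse-variance-weighted averaging of replicates. The logarithm is base 2, and genotypes were kept only with ≥10 input reads and ≥1 read per output in Illumina sequencing. The sequenced libraries came from one triplicate in vitro selection round, including frozen incubation at −7 °C, of PCR-built, transcribed mutant libraries of each subunit of a heterodimeric triplet polymerase ribozyme.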

Variant	polymerase ribozyme fitness (log ratio)
GACCAAUCUGCCCUCAGAGCUCGAGAACAUCUUCGGAUGCAGAGGAGGCAGGCUUCGGUGUCGCGAUAGCGCCAACGUCCUCAACAUCCAAUGCAUCCCACCACAUGAUGAUGCCUGACAAGCCUUGGUUUUUUG	-2.79
GACCAAUCUGCCCUCAGAGCUCGAGAACAUCUUCGGAUGCAGAGGAGGCAGGCUUCGGUGGCGUGAUAGCGCCAACGUCCUCAACCUCCAAUGCAUCCCACCACAUAAUGAUGCCUGAAGAGCCUUGGUUUUUUG	-3.01
GACCAAUCUGCUCUCAGAGCUCGAGAACAUCUUCGGAUGCAGAGGAGGCAGGCUUCGGUGGCGCGAUAGCGCCAACGUCCUCAACCUCCAAUGCAUCCCACCACAUGAUGAUGCCUGAAGAGCCUUGGUUUAUUG	0.262
GACCAAUCUGCCCUCAGAGCUCGAGAACAUCUUCGGUUGCAGAGGAGGCAGGCUGCGGUGGCGCGAUAGCGCCAACGUCCUCAACCUCCAAUGCAUCCCACCACAUGAUGAUGCCUGAAGAGCCUUGGUUUUUUG	-0.465
GACCAAUCUGCCCUCAGAGCUCGAGAACAUCUUCGGAUGCAGAGGAGGCAGGCUUCGGUGGCGCGAUAGCGCCAACGUCCUCAACCUCCAAUGCAUCCCACCACAUGAUGAUGCCAGAAGAGCCAUGGUUUUUUG	-3.4
GACCAAUCUGCCCUCAGAGCUCGAGAACAUCUUCGGAUGCAGAGGAGGCAGGCUUCGGUGUCGCGAUAGCGCCAACGUCCGCAACUUCCAAUGCAUCCCACCACAUGAUGAUGCCUGAAUAGCCUUGGUUUUUUG	-2.64
GACCAAUCUGCCCUCAGAGCUGGAGAACAUCUUCGGAUGCAGAGGAGGGAGGCUUCGGUGGCGCGAUAGCGCCAACGUCCUCAACCUCCAAUGCAUCCCACCACAUGAUGAUGCCUGAAGAGCCUUGGUUUUUUG	-3.79
GACCAAUCUGCCCUGAGAGCUCGAGAACAUCUUCGGAUGCAGAGGAGGCAGGCUUCGGGGGCGCGAUAGCGCCAACGUCCUCAACCUCCAAUGCAUCCCACCACAUGAUGAUGCCUGAAGAGGCUUGGGUUUUUG	-1.59
GACCAAUCUGCCCUCAGAGCUCGAGAACGUCUUCGGAUGCAGAGGAGGCAGGCUUCGGUGGCGCGAUAGCACCAACGUCCUCAACCUCCAAUGCAUCCCACCACAUGAUGAUGCCUGAAGAGCCUUGGUUUUUUG	-1.75
GACCAAUCUGCCGUCAGAGCUCGAGAACAUCUUCGGAUGCAGAGGAGGCAGGCUUCGGUGGUGCGAUAGCGCCAACGUCCACAACCUCCAAUGUAUCCCAUCACAUGAUGAUGCCUGAAGAGCCUUGGUUUUUUG	-3.12
GACCAAUCUGCCCUCAGAGCUCGAGAACAUCUUCGGAUGCACAGGAGGCAGGCUUCGGUGGCGCGUUAGCGCCAACGUCCUCAACCUCCAAUGCAUCCCACCACAUGAUGAUGCCUGAAAAGCCUUGGUUUUUUG	-2.6
GACCAAUCUGCCCUCAGGGCUCGAGAACAUCUUCGGAUGCAGAGGAGGCAGGCUUCGGUGGCGCGAUAGUGCCAACGUCCUCAACCUCCAAUGCUUCCCACCACAUGAUGAUGCCUGAAGAGCAUUGGUUUUUUG	-4.13
GACCAAUCUGCCCUCAGAGCUCGAGAACAUCUUCGGAUGCAGAGGAGGCAGGCUUCGGUGGCGCGAUAGCGCCAACGUCCUAAACCUCAAAUGCAUCCCACCACAUGAUGAUGCCUGAAGAGCCUUGGUUUUUUG	-2.78
GACCAAUCUGCCCUCAGAGCUCGAGAACAUCUUCGGAUACAGAGGAGGCAGGCUUUGGUGGCGCGAUAGCGCCAACGUCCUCAAUCUCCAAUGCAUCCCACCACAUGAUGUUGCCUGAAGAGCCUUGGUUUUUUG	-3.84
GACCAAUCUGCCCUCAGAGCUCGAGAACAUCUUCGGAUGCAGAGUAGGCAGGCUUCGGUGGCGCGAUAGCGCCAACGUCCUCAACCUCCAAUGCAUUCCACCACAUGAUGAAGCCUGAAGAGCCUUGGUUUUUUG	-0.0204
GACCAAUCUUCCCUCAGAGCUCGAGAACAUCUUCGGAUGGAGAGGAGGCAGGCUUCGGUGGCGCGAUAGCGCCAACGUCCUCAACCUCCAAUGCAUCCCACCACAUGAUGAUGCCUGAAGAGCCUUGGUUUUUUG	-0.556
GACCAACCUGCCCUCAGAGCUCGAGAACAUCUUCGGAUGCAGAGGAGGCAGGCUUCGGAGGCGCGAUAGCGCCAACGUCCUCGACCUCCAAUGCACCCCACCACAUGAUGAUGCCUGAAGAGCCUUGGUUUUUUG	-1.25
GACCAAUCUGCCCUCAGAGGUCGAGAACAUCUUCGGAUGCAGAGGAGGCAGGCUUUGGUGGCGCGAUAGCGCCAACGUCCUAAACCUCCAAUGCAUCCCACCACAUGAUGAUCCCUGAAGAGCCUUGGUUUUUUG	-2.04
GACCAAUGUGUCCUCAGAGCUCGAGAACAUCUUCGGAUGCAGAGGAGGCAGGCUUCGGUGGCGCGAUAGAGCCAACGUCCUCAACCUCCAAUGUAUCCCACCACAUGAUGAUGCCUGAAGAGCCUUGGUUUUUUG	-1.28
GACCAAUCUGCCCUCAGAGCUCGAGAACAUCUUCGGAUGCAGAGGAGGCAGGCUUCGGUGGAGCGAUAGCGCCAACGUCCUCAACCUCCAAUGCUUCCCACCACAUGAUGAUGCCUGAAGCGCCUUGGUUUUUUG	-0.641
GACCAAUCUGCCCUCAGAGCUCGAGAACAUCUUCGGAUGCAGAGGAGGCAGGCUUCGGUUGCGCGAUAGCGCCAACGACCUCAACCUCCAAUGCAUCCCACCACAAGAUGAUGCCUGAAGAGCCUUGGUUUUUUG	0.283
